Legend:
[1] = molecular target: GST-ΔPH-PKBα (residues 118-479 of human PKBα, lacking the PH domain) (UniProt P31749)
[2] = molecular target: HA-PKBα (haemagglutinin epitope-tagged human PKBα expressed in 293 cells) (UniProt P31749)
[3] = tested on: GST-PKBα (full length human protein kinase Bα with N-terminal glutathione S-transferase, from unstimulated 293 cells) [GST: P08515]
Chain of GST-PKBα (full length human protein kinase Bα with N-terminal glutathione S-transferase, from unstimulated 293 cells) [GST: P08515] (P08515 whole entry, looked up): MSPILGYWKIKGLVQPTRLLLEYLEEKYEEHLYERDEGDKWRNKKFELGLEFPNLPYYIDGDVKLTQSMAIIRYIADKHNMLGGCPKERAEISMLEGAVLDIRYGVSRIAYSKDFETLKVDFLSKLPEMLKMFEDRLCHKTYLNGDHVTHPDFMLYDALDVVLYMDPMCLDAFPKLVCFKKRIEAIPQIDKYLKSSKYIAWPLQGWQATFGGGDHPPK

Chain of GST-ΔPH-PKBα (residues 118-479 of human PKBα, lacking the PH domain) (P31749 whole entry, looked up, stated change not applied, the tested form may be a part): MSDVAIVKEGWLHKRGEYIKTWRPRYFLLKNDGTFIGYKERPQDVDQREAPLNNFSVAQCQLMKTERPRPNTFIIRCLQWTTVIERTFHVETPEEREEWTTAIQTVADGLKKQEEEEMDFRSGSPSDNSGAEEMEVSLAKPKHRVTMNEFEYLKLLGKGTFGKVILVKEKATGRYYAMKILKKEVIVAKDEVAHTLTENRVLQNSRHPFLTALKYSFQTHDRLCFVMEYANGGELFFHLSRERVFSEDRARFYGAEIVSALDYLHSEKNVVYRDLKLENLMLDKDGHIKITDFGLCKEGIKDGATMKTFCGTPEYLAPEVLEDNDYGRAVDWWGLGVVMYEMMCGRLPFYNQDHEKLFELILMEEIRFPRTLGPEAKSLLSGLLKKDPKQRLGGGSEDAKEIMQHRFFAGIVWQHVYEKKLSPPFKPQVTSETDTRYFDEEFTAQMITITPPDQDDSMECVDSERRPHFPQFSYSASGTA
Chain of HA-PKBα (haemagglutinin epitope-tagged human PKBα expressed in 293 cells) (P31749 whole entry, looked up): as the sequence (P31749 whole entry, looked up, stated change not applied, the tested form may be a part) above

PtdIns(3,4,5)P3-dependent protein kinase-1 (PDK1) purified from rabbit skeletal muscle
activation and phosphorylation of GST-ΔPH-PKBα [1]: also activated and phosphorylated GST-ΔPH-PKBα in a PtdIns(3,4,5)P3 independent manner (data not shown)
phosphorylation of immunoprecipitated HA-PKB by PDK1 [2]: immunoprecipitated HA-PKB was not phosphorylated effectively by PDK1
fold increase in GST-PKBα activity with sn-1,2-dilinoleoyl D-PtdIns(3,4,5)P3 [3]: causing a 36-fold increase in GST-PKBα activity
fold increase in GST-PKBα activity with sn-1,2-dipalmitoyl PtdIns(3,4)P2 (lipid 7) [3]: both inositol phospholipids increasing GST-PKBα activity about 6-fold
fold increase in GST-PKBα activity with sn-1,2-dipalmitoyl PtdIns(3,4,5)P3 (lipid 6) [3]: both inositol phospholipids increasing GST-PKBα activity about 6-fold
increase in GST-PKBα activity [3]: a >30-fold increase in activity
phosphorylation of GST-PKBα (mol 32P per mol protein) [3]: to a level approaching 0.7 moles of 32 P/mol protein
phosphorylation of GST-PKBα (mol/mol) in the sample used for site mapping [3]: phosphorylated to 0.4-0.6 mol/mol with PDK1
specific activity of GST-PKBα reached after phosphorylation by PDK1 [3]: reached a specific activity of 80 U/mg
specific activity of PDK1 after Mono S (units of GST-PKBα activation per mg) [3]: 69500 U/mg
specific activity towards GST-PKBα in the presence of PtdIns(3,4,5)P3 [3]: PDK1 purified from rabbit skeletal muscle (100 000 U/mg)

GST-D223A-PDK1 (full length catalytically inactive human PDK1, Asp223 changed to Ala)
phosphorylation and activation of GST-PKBα [3]: did not phosphorylate or active GST-PKBα in the presence of PtdCho/PtdSer lipid vesicles containing PtdIns(3,4,5)P3 (data not shown)

GST-ΔPH-PDK1 (residues 1-450 of human PDK1, lacking the putative C-terminal PH domain)
rate of activation of GST-PKBα by GST-ΔPH-PDK1 compared to full length wild-type GST-PDK1 [3]: the rate of activation was reduced about 30-fold compared to full length wild-type GST-PDK1

— patent US20050032185
